Data as given in US20070071742A1 (PERLAN THERAPEUTICS, published 2007).
Positions count from the first letter of the chain named.

B1: HumA humanized 1A6 scFv (scFv, not shown: large carriers)
scFv: DIQMTQSPSSLSASVGDRVTITCRASQSISNNLHWYQQKPGKAPKLLIYHASQSISGVPSRFSGSGSGTDFTLTISSLQPEDFATYYCQQSNSWPYTFGQGTKVEIKRGGGGSGGGGSGGGGSGGGGSEVQLVESGGGLVQPGGSLRLSCAASGFNIKDTYIHWVRQAPGKGLEWVARIDPANDNTIYADSVKGRFTISSDDSKNTAYLQMNSLRAEDTAVYYCTDSGYWFAYWGQGTLVTVSS
B2: HumB humanized 1A6 scFv (scFv, not shown: large carriers)
scFv: B1 scFv with D226A
B3: HumC humanized 1A6 scFv (scFv, not shown: large carriers)
scFv: B1 scFv with S200G, D226T

Target: ICAM-1 on HeLa cells (UniProt P05362 28-532, limits assumed)
Sequence (P05362 28-532 limits assumed): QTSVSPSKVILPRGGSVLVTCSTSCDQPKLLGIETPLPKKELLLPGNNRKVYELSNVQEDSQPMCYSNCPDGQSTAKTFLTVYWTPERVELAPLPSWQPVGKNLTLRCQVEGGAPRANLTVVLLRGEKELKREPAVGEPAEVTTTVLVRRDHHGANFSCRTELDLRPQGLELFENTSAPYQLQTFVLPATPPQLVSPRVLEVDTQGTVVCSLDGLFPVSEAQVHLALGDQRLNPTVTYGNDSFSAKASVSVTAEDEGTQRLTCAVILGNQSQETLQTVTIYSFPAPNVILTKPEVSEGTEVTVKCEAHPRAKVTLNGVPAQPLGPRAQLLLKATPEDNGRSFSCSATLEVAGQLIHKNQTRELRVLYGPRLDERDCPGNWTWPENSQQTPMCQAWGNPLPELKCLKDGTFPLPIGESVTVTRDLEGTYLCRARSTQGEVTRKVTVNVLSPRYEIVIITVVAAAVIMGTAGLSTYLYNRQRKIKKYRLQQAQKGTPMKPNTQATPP
Assay: cell-based or functional assay

Binder	EC 50 (µM): 50% protection of HeLa cells against HRV15 infection at 1 MOI
B1	2.8 µM
B2	0.19 µM
B3	0.22 µM
